Broadly, the Ki is the dissociation constant of the complex between target and ligand, obtained from inhibition or displacement.

This note sets out measurements from patent US20190002511A1 (NATIONAL UNIVERSITY OF SINGAPORE, published 2019).

Assay [1] deals with T1, human α-thrombin (recombinant) (human, UniProt P00734 328-363; P00734 364-622). In words: cell-based or functional assay.
For assay [2], the target named is T1, human α-thrombin (recombinant). Put plainly: thrombin amidolytic assay with S2238, tight-binding fit. On the procedure: A and C. […] B and D. Residual thrombin amidolytic activities in presence of UV003 and UV004 were measured at different concentrations of S2238 and their Kᵢ were determined.
(§1) Thrombin amidolytic activity assays for all peptides were performed in 96-wells microtiter plates in 50 mM Tris buffer (pH 7.4) containing 100 mM NaCl and 1 mg/ml bovine serum albumin. […] The rates of formation of p-nitroaniline were followed by measuring the absorbance at 405 nm for 10 min with a Tecan InfinitePro M200 microplate reader from Tecan (Mannedorf, Switzerland). Dose-response curves were fitted using the GraphPad Prizm software (San Diego, Calif., USA) to calculate IC50 values and Hill coefficients. To measure the inhibitory constants, different concentrations of S2238 were used and the residual velocities were determined using the Morrison's tight binding equation. Inhibition of thrombin fibrinogenolytic activity of peptides were tested by measuring absorbance at 650 nm using a Sunrise microplate reader from Tecan (Mannedorf, Switzerland) as described previously [Koh C Y, et al., J Biol Chem 282: 29101-13 (2007)].

Assay [3] has the same target. In words: comparison of Ki values.
Description: (§3) Thrombin amidolytic activity assays for all peptides were performed in 96-wells microtiter plates in 50 mM Tris buffer (pH 7.4) containing 100 mM NaCl and 1 mg/ml bovine serum albumin. […] Dose-response curves were fitted using the GraphPad Prizm software (San Diego, Calif., USA) to calculate IC50 values and Hill coefficients. To measure the inhibitory constants, different concentrations of S2238 were used and the residual velocities were determined using the Morrison's tight binding equation.
Assay [4] shares this target. In words: cell-based or functional assay. The source holds these as a separate data set.
The target is the same in assay [5]. In words: cell-based or functional assay. This is another data set of the same source.
For assay [6] the target is unchanged. In words: thrombin amidolytic assay with S2238, Morrison tight-binding fit, competitive.
Excerpt: Data were fitted to the Morrison tight binding equation using GraphPad Prizm software. Each data point is the mean±S.D. of at least three experiments.
(§4) Each data point is the mean±S.D. of at least three independent experiments. […] Each data point is the mean±S.D. of at least three independent experiments. […] Each data point is the mean±S.D. of at least three experiments.
Assay [7] shares this target. Put plainly: comparison of Ki values, thrombin amidolytic assay.
Description: as §3
For assay [8] the target is unchanged. In words: thrombin amidolytic assay with S2238, double reciprocal (Lineweaver-Burke) plot. On the procedure: (§2) Each data point is the mean±S.D. of at least three independent experiments.
as §1, with “To measure the inhibitory constants, different concentrations of S2238 were used and the residual velocities were determined using the Morrison's tight binding equation.” left out, “(2007)]. […] After different incubation times, reactions were quenched with 1% TFA (pH 1.8) and loaded onto a Jupiter Proteo column (4 μm, 90 Å, 100×1.0 mm) attached to a Dionex nano-HPLC system from Thermo Fisher Scientific (Waltham, Mass., USA) and eluted using an acetonitrile gradient with 0.05% TFA and 99.95% MilliQ water as eluent A and 0.05% TFA, 19.95% MilliQ water and 80% ACN as eluent B. Masses of all peaks were measured to identify cleavage products, which were subsequently quantified by integrating the peaks and calculating the area under the curves. […]” for “(2007)].”

The target is the same in assay [9]. Put plainly: thrombin amidolytic assay with S2238, Morrison tight-binding fit, non-competitive.
Description: as §4, §3
Assay [10] has the same target. Put plainly: thrombin amidolytic assay with S2238, tight-binding fit. On the procedure: as §2
as §1, with “(2007)]. […] After different incubation times, reactions were quenched with 1% TFA (pH 1.8) and loaded onto a Jupiter Proteo column (4 μm, 90 Å, 100×1.0 mm) attached to a Dionex nano-HPLC system from Thermo Fisher Scientific (Waltham, Mass., USA) and eluted using an acetonitrile gradient with 0.05% TFA and 99.95% MilliQ water as eluent A and 0.05% TFA, 19.95% MilliQ water and 80% ACN as eluent B. Masses of all peaks were measured to identify cleavage products, which were subsequently quantified by integrating the peaks and calculating the area under the curves. To measure the effect of different pre-incubation times on the thrombin inhibitory activity, amidolytic assays were performed for various incubation times (up to 36 h).” for “(2007)].”
This is another data set of the same source.

Residue numbers refer to the chain shown, from its start. Names may count otherwise. Square brackets hold non-standard residues; d marks the D form. Ends that are not written are not given here. β3hR = N=C(N)NCCC[C@H](N)CC(=O)O

B1: UV004 (peptide)
peptide: SDEAVRAEPKMHKTAPPGDFEEIPDDAIEE
On to B1, for which the “IC50, inhibition of thrombin amidolytic activity” value in assay [1] is 0.46 nM. The Ki in [2] worked out at 0.00455 nM.

B2: UV012 (peptide)
peptide: SDEAVRAIPKMYSTAPPGDFEEIPDDEIEE
notes: Ultravariegin Ala27Glu
Consider B2, for which the “IC50, inhibition of thrombin amidolytic activity” value in [1] was 0.94 nM.

B3: UV013 (peptide)
peptide: B2 peptide with T14Q, E27A
notes: Ultravariegin Thr14Gln
B3: the “IC50, inhibition of thrombin amidolytic activity” value in assay [1] stood at 0.341 nM.

B4: UV007 (peptide)
peptide: B2 peptide with S1C, E27A
notes: Ultravariegin with Cys at the N-terminus
On to B4, for which the “IC50, inhibition of thrombin amidolytic activity” value in assay [1] was found to be 0.601 nM. Besides, in assay [2], the Ki is 0.00627 nM.

B5: UV011 (peptide)
peptide: MYSTAPPGDFEEIPDDAIEE
notes: also called C-terminal cleavage product of ultravariegin
Take B5: in [3], the “fold better Ki than the avathrin C-terminal cleavage product IS20” value was about 4 fold and the “fold better Ki than the variegin C-terminal cleavage product MH22” value was about 10 fold. Moreover, the “IC50, inhibition of thrombin amidolytic activity” value in [1] came out at 1.66 nM. The Ki in assay [2] turned out to be 1.39 nM.

B6: QT26 (peptide)
peptide: QTAVPKISKQGLGGDFEEIPSDEIIE
notes: Avathrin without its four N-terminal residues
With B6, the “IC50, inhibition of thrombin amidolytic activity, 10 min pre-incubation” value in [4] came to 13.5 nM. In addition, the “IC50, inhibition of thrombin amidolytic activity (S2238)” value (“IC50, inhibition … (S2238)” below) in [5] is 8.94 nM. For the same molecule, in [6], the inhibition constant (Ki) was 0.76 nM.

B7: UV008 (peptide)
peptide: SDEAVRAIPKMYSTAPPGDFEEIPDDAIEECA
notes: Ultravariegin with C-terminal CA
Turning to B7, the “IC50, inhibition of thrombin amidolytic activity” value in assay [1] was 1.82 nM. Further, in [2], the Ki was determined as 0.0786 nM.

B8: UV005 (peptide)
peptide: SDEAVRAIPKMYSTAPPGDFEEIPEEYLDDES
B8: in [1], the “IC50, inhibition of thrombin amidolytic activity” value came out at 0.91 nM. Besides, the “fold drop in affinity against ultravariegin” value in assay [7] was about 3.6 fold. The Ki in [2] was 0.016 nM.

B9: β-avathrin (peptide)
peptide: SGGHQTAVP[β3hR]ISKQGLGGDFEEIPSDEIIE
As for B9, the “fold loss of potency against avathrin (amidolytic IC50)” value in assay [4] was over 100 fold. Also, in assay [5], the “IC50, inhibition … (S2238)” value stood at 332 nM. The Ki in assay [8] turned out to be 32 nM.

B10: UV003 (peptide)
peptide: SDQGDVAIPKMYSTAPPGDFEEIPDDAIEE
As for B10, the “IC50, inhibition of thrombin amidolytic activity” value in assay [1] was found to be 0.6 nM. Besides, the Ki in assay [2] turned out to be 0.00421 nM.

B11: UV014 (peptide)
peptide: MYSTAPPGDFEEIPDDAIEEGCCC
notes: UV011 with C-terminal GCCC
Take B11: the “IC50, inhibition of thrombin amidolytic activity” value in [1] stood at 1.98 nM. Moreover, in assay [2], the Ki turned out to be 2.47 nM.

B12: Variegin YS (peptide)
peptide: SDQGDVAEPKMYSTAPPFDFEAIPEEYLDDES
With B12, in assay [1], the “IC50, inhibition of thrombin amidolytic activity” value was 3.16 nM. Besides, in [2], the Ki was determined as 0.671 nM.

B13: avathrin L16P, G17P (peptide)
peptide: SGGHQTAVPKISKQGPPGDFEEIPSDEIIE
Take B13: the “fold drop in activity against avathrin (amidolytic IC50)” value in assay [4] was over 25 fold. Moreover, the “IC50, inhibition … (S2238)” value in [5] is 181 nM.

B14: IS20 (peptide)
peptide: ISKQGLGGDFEEIPSDEIIE
notes: Avathrin residues 11-30; also called C-terminal cleavage product of avathrin
For B14, in assay [4], the “IC50, inhibition of thrombin amidolytic activity, 0 min” value worked out at 12.4 nM and the “IC50, inhibition of thrombin amidolytic activity, 10 min pre-incubation” value was determined as 22.7 nM. Further, the “IC50, inhibition … (S2238)” value in [5] was 12.2 nM. In addition, the Ki in assay [9] was 5.76 nM.

B15: avathrin G2D, Q5D (peptide)
peptide: SDGHDTAVPKISKQGLGGDFEEIPSDEIIE
For B15, the “fold weaker inhibition against avathrin and QT26” value in assay [4] was under 2 fold. Besides, the “IC50, inhibition … (S2238)” value in [5] was 13 nM. Further, the Ki in assay [10] worked out at 0.932 nM.

B16: avathrin S12H (peptide)
peptide: B15 peptide with D2G, D5Q, S12H
notes: also called 512H
As for B16, the “fold loss of potency against avathrin (amidolytic IC50)” value in [4] was found to be 2 fold. For the same molecule, the “IC50, inhibition … (S2238)” value in assay [5] came to 18.5 nM. For the same molecule, the inhibition constant (Ki) in assay [10] came to 1.23 nM.

B17: avathrin K10R (peptide)
peptide: B15 peptide with D2G, D5Q, K10R
notes: also called K10R-avathrin
For B17, the “fold gain in activity against avathrin” value in [4] stood at 5 fold. In addition, the “IC50, inhibition … (S2238)” value in [5] was 1.15 nM. In [10], the Ki turned out to be 0.172 nM.

B18: avathrin S12A (peptide)
peptide: B15 peptide with D2G, D5Q, S12A
Turning to B18, in assay [4], the “fold change of IC50 against avathrin” value amounted to 20 fold and the “fold drop in potency against avathrin (amidolytic IC50)” value was over 10 fold. Also, the “IC50, inhibition … (S2238)” value in assay [5] was found to be 101 nM. For the same molecule, the Ki in assay [8] worked out at 6.08 nM.

B19: UV015 (peptide)
peptide: SDEAVRAIPKMYSTAPPGDFEEIPDDAIEEGCCC
notes: Ultravariegin with C-terminal GCCC
Regarding B19, the “IC50, inhibition of thrombin amidolytic activity” value in [1] was 1 nM. Besides, in assay [2], the Ki turned out to be 0.00852 nM.
